Source: patent US20260209365A1, “ANTI-COMMON GAMMA CHAIN PROTEINS AND COMPOSITIONS OF MATTER” (SINOMAB BIOSCIENCE LIMITED, priority 2023, published 2026)

Assays:
BCL-2 expression = test: IL-7 induced BCL-2 expression in HPB-ALL, flow cytometry; type: cell-based, human; conditions: humanized antibodies, 33 nM, vs ritlecitinib
Procedure: Several assays, such as were proposed to study cell survival of HPB-ALL from literature [Ribeiro et al., Blood Adv., 2018; 2 (17): 2199-2213] was measured in terms of BCL2 (anti-apoptotic marker) expressing cells by flow cytometry. In brief, HPB-ALL was pre-treated with antibodies or inhibitors for an hour before stimulated with 50 ng/ml IL-7 for 3 days. Cells were harvested and stained with FITC-conjugated BCL-2 antibody (Biolegend) for flow cytometry analysis.

[1] = target: T1, native γc proteins from human (Homo sapiens, UniProt P31785); test: Binding to native human γc on transfected HEK-293 cells, flow cytometry; type: cell-based; conditions: FITC-labelled antibody 33 nM (5 μg/ml)
T1 construct: transfected with plasmid expressing full length γc protein from human; expressed in transfected cells; host or cells: HEK-293
T1 sequence (P31785 23-369): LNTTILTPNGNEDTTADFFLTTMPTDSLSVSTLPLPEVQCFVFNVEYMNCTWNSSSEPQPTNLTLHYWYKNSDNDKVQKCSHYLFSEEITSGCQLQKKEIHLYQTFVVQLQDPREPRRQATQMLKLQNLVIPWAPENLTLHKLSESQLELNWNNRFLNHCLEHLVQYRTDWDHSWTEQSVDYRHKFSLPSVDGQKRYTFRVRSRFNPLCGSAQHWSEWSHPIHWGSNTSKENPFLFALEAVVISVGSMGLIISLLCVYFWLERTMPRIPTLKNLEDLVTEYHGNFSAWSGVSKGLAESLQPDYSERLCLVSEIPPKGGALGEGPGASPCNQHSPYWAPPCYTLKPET
Procedure: The binding specificities of humanized anti-γc antibodies to native γc proteins were further evaluated by […] binding assay. In brief, human HEK-293 cells were transfected with plasmid expressing full length γc protein from human, rhesus, cynomolgus or common marmoset. Two days later, transfected cells or non-transfected controls were incubated with FITC-conjugated hSM-05A on ice for an hour before analysis by flow cytometry.

Jurkat T cells = test: IL-9 rescue of ceramide induced Jurkat cell death, WST-8; type: cell-based, human; conditions: ceramide 50 μM; IL-9 50 ng/ml; three days
Procedure: Jurkat T cells were pretreated with anti-γc antibodies or ritlecitinib before the application of anti-tumor ceramide (50 μM) and IL-9 (50 ng/ml) for three days. To evaluate cell survival, 10 μl WST-8 reagent was added to each well and incubated for 4 hours before spectrophotometer measurement.

B1: hSM-05A: full-length humanized anti-γc antibody derived from SM-05A by framework patching (antibody, V domains shown)
VH: QVQLVQSGAEVLKPGASVKVSCKASGYTFTEYTMHWVKQARGQRLEWIGGIDPYNGGATYNQRFKGKATLTTDTSTSTAYMELRNLRSDDTAVYYCARRRLYYGNALDYWGQGTLVTVSS
VL: DIVMTQSPLSLPVTPGEQASISCRSSQSLVHSNGNTYLHWYLQKPGQSPQLLIYKVSSRFSGVPDRFSGSGSGTDFTLKISRVEAEDVGVYFCSQTTHVPFTFGSGTKLEIKR
suppression of IL-7 induced BCL-2 upregulation (BCL-2 expression): better suppression to IL-7 induced BCL-2 upregulation and CD127 degradation than ritlecitinib | binding to native human γc on HEK-293 [1]: could bind to the native γc proteins from humans and common marmoset | suppression of IL-9 rescue of ceramide induced Jurkat cell death (Jurkat T cells): could suppress the IL-9 effect
